Earlier results on 1 substance are cited in paper PMC3137789.

The series deals with plexinC1 (Homo sapiens) (UniProt O60486).
Sequence of UniProt O60486 (O60486 35-944): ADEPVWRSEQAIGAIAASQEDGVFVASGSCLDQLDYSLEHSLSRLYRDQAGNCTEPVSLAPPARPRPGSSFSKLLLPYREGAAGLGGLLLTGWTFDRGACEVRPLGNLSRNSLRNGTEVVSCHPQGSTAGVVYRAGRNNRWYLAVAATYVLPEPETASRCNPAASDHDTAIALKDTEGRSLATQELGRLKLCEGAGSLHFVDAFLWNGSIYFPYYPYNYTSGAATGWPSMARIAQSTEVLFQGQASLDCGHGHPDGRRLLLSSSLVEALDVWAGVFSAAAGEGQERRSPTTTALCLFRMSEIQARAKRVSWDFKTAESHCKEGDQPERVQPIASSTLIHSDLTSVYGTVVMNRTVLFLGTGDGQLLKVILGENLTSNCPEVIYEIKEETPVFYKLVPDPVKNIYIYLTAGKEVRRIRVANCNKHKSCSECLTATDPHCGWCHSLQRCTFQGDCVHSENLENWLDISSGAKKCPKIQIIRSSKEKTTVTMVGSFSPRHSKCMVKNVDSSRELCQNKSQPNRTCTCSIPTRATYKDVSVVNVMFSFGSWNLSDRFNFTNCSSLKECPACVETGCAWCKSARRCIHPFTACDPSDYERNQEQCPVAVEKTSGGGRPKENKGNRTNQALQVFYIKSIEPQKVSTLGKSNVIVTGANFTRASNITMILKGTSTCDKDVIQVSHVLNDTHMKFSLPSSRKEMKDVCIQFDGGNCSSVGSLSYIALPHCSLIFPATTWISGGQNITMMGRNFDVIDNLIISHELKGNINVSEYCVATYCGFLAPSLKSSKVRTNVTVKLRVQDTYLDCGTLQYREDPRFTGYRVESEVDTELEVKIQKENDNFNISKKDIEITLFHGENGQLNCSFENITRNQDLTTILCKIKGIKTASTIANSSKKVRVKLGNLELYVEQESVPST

One may read the Kd as a measure of binding affinity in units of concentration. On to Sema7A (from UniProt O75326), for which the Kd is 300 nM.
